We go through 3 molecules from PMC3960984 (Nature structural & molecular biology, 2012).

No end group written: not given here.

The target of this test is human LRH-1 LBD (residues 299-541), loaded with DLPC (human, UniProt O00482 299-541). Briefly: fluorescence polarisation. (In fluorescence polarisation assays a small probe gives low polarisation when free and higher when bound to something large.)
Chain of human LRH-1 LBD (residues 299-541), loaded with DLPC (O00482 299-541): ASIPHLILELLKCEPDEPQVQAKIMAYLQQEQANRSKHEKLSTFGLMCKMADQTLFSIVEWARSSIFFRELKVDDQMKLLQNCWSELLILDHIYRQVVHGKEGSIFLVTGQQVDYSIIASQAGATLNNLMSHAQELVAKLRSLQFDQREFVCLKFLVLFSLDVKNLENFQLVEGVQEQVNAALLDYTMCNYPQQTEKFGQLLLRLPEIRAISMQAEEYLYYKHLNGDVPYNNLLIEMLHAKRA
As to PVSPKKKENALLRYLLDKDDT (also: fluorescein label, position not given here) [fluorescein labeled peptide derived from TIF2 NR Box 3], the binding result is reported as “binds”.

With SPSSHSSLTERHKILHRLLQEGSP (also: fluorescein label, position not given here) [fluorescein labeled peptide derived from SRC-1 NR Box 2], the binding result is “binds”. Take EEPSLLKKLLLAPA (also: fluorescein label, position not given here) [fluorescein labeled peptide derived from human PGC-1α NR Box 2]: the binding result was “binds”.
